T1: mouse P2X7 (mouse, UniProt Q9Z1M0 1-595)
T1 construct: on transfected CHO or Hek293 cells, or endogenous on Yac-1 cells; also called mP2X7; mouse purinoceptor P2X7
T1 sequence: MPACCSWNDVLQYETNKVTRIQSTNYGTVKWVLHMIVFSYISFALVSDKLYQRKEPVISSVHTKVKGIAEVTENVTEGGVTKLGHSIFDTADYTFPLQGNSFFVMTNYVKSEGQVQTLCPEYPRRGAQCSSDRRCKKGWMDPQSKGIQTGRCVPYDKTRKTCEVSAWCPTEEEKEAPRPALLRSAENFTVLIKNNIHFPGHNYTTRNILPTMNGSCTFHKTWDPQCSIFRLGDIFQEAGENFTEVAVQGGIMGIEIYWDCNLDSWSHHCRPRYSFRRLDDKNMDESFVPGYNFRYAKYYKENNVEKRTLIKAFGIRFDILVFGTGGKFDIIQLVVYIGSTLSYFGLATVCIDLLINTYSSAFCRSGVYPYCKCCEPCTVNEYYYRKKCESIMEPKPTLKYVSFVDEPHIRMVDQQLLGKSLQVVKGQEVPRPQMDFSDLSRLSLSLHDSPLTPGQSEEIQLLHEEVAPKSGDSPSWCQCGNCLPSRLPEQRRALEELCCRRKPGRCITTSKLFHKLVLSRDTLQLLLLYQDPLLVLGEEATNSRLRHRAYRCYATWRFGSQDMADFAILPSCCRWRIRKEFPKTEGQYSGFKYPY

T2: human P2X7 (human, UniProt Q99572 1-595)
T2 construct: on transfected Hek293 cells; also called hP2X7
T2 sequence: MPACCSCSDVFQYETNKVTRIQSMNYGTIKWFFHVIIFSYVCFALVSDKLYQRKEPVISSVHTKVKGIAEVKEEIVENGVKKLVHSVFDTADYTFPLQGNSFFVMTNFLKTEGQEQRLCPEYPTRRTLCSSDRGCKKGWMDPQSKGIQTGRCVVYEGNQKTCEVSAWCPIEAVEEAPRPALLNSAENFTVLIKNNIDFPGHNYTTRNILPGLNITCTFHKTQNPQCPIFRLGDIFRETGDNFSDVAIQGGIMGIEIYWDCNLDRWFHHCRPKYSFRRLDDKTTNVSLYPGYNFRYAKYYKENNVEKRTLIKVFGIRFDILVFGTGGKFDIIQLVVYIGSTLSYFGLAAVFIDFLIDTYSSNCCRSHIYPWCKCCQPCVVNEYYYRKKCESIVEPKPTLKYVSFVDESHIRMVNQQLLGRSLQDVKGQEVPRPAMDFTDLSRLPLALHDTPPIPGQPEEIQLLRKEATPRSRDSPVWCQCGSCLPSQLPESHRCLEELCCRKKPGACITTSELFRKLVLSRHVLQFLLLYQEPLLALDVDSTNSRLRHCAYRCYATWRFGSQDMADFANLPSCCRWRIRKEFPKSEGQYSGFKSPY

T3: human P2X4 (human, UniProt Q99571 1-388)
T3 construct: whole, on cells; also called hP2X4
T3 sequence (looked up): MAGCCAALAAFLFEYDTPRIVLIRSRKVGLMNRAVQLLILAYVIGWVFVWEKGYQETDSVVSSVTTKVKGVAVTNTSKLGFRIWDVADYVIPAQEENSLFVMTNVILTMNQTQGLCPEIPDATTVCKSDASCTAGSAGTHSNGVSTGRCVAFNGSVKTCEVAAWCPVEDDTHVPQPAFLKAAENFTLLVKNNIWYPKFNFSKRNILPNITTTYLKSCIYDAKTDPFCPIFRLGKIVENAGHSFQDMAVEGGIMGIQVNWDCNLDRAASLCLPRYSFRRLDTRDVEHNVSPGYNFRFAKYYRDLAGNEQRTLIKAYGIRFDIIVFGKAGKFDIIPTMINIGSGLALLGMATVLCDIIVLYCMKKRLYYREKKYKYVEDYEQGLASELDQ


What was measured:
mouse P2X7 [1] = target: T1, mouse P2X7; experiment: Table A-1 'P2X7 function'; screening on mP2X7-expressing cells
human P2X7 = target: T2, human P2X7; experiment: flow cytometry, Nanobody pre-incubated with anti-Myc-FITC
human P2X4 = target: T3, human P2X4; experiment: as above
mouse P2X7 [2] = target: T1, mouse P2X7; experiment: flow cytometry, periplasmic extract pre-incubated with anti-myc-FITC, on mP2X7-Hek293 cells;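 also: periplasmic extract diluted 10-fold and premixed 45 min at 4 °C with FITC anti-myc antibody, giving pseudo-bivalent Nanobodies, before binding to the cells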
Method: Ten-fold diluted PE were pre-incubation with 0.5 μg anti-myc FITC-conjugated antibodies (AbD Serotec, cat no. MCA2200F) (creating pseudo-bivalent Nanobodies in order to increase binding strength) in 0.1 ml PBS/10% FCS for 45 minutes at 4° C. […] Alternatively, sequential staining of 10-fold diluted PE with anti-myc FITC-conjugated antibodies was done after incubation with the cells.

mouse P2X7 [3] = target: T1, mouse P2X7; experiment: phage ELISA on fixed mP2X7-CHO vs untransfected CHO cells;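 also: phage culture supernatant diluted 10-fold, applied for 1 h to paraformaldehyde-fixed, BSA-blocked cells in 96-well plates, with bound phage read via HRP-linked anti-M13 antibody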
Method: (§1) Sub-confluent cells were rinsed with PBS and fixed using 4% paraformaldehyde in PBS for 10 minutes at RT. Fixed cells were washed three times with PBS, and blocked with 2% BSA in PBS for 2 hours. Following blocking, 10-fold diluted culture supernatant containing phage was added and incubated for 1 hour. Cell-bound phage was detected via mouse anti-M13-HRP-conjugate (GE Healthcare, Cat nr. E2886). Rat mAb Hano43 was used as positive control.

mouse P2X7 [4] = target: T1, mouse P2X7; experiment: phage ELISA, mP2X7-CHO vs control CHO cells
Method: as §1

mouse P2X7 [5] = target: T1, mouse P2X7; experiment: cell-based or functional assay

Row | Binder | binding result (mouse P2X7 [1]) | also measured
1 | P2X7PMP7D8 (VHH, family 13; on phage or c-myc/His6-tagged in assays) VHH: EVQLVESGGGLVQPGGSLRLSCAASGLTLEYYNIGWFRQAPGKEREGVACIDWTEGSTFYVDSVKGRFTISTDNAKNTVYLHMNSLEPEDTAVYYCAAGWGRVITVQHMCADRSLFTSWGQGTQVTVSS | binds | –
2 | P2X7PMP18A7 (VHH, family 25; on phage or c-myc/His6-tagged in assays) VHH: EVQLVESGGDLVQPGGSLRLSCVASGFALEEHAIGWFRQAPGKEREGVSLSSYVGAVYYATSVKGRFTISRDNAKNTVYLQMNSLKPEDTAVYYCARGHFTYDDGRISIRSVDHWGKGTLVTVSS | – | binding result (human P2X7): no binding (tested: 147 nM); binding result (human P2X4): no binding (tested: 147 nM); MFI FACS (pre-Myc incubation) (mouse P2X7 [2]): 69 MFI; Fold Cho P2X7/wt (phage ELISA) (mouse P2X7 [3]): 14 fold; absorption ratio (ELISA) (mouse P2X7 [4]): 14 ratio
3 | P2X7PMP4G6 (VHH, family 1; on phage or c-myc/His6-tagged in assays) VHH: EVQLVESGGDVVQAGGSLRLSCLASGFTFDDYAIGWFRQAPGKEREGISCISSTGNVFYADSVKGRFTISSDKEKNTLYLQMNSLKPEDTAVYHCAAGHFTVDSGKVLLRTDVSSWGQGTQVTVSS | binds | –
4 | P2X7PMP20E8 (VHH, family 1; on phage or c-myc/His6-tagged in assays) VHH: EVQLVESGGDVVQAGGSLRLSCLASGFTFDDYAIGWFRQAPGKEREGISCISSTGNVFYADSVKGRFTISSDKEKNTLYLQMNSLKPGDTAVYHCAAGHFTVDSGKVLLRTDISSWGQGTQVTVSS | binds | –
5 | P2X7PMP16H8 (VHH, family 1; on phage or c-myc/His6-tagged in assays) VHH: EVQLVESGGDVVQAGGSLRLSCLASGFTFDDYAIGWFRQAPGKEREGISCISSTGNVFYADSVKGRLTISSDKEKNTLYLQMNSLKPEDTAVYHCAAGHFTVDSGKVLLRTDISSWGQGTQVTVSS | binds | –
6 | P2X7PMP8F5 (VHH, family 5, 2; on phage or c-myc/His6-tagged in assays) VHH: EVQLVKSGGGLVQAGGSLRLSCAASGSFFRVNNMAWYRQAPGKQRELVADITRGDRTNYADSVNGRFTISRDNVRNTVYLQMNGLKPEDTAVYYCYARIELGPLVPRDYWGQGTQVTVSS | – | ATP IC50 by 2 uM NB (head prints 'mM'; ligand titration at fixed Nanobody, CD62L shedding, Yac-1 cells) (mouse P2X7 [5]): 0.171 mM; IC50 (nM) against 20 uM NAD (CD62L shedding, Yac-1 cells) (mouse P2X7 [5]): 579 nM; IC50 (nM) against 100 uM ATP (CD62L shedding, Yac-1 cells) (mouse P2X7 [5]): 350 nM; binding result (human P2X7): no binding (tested: 147 nM); binding result (human P2X4): no binding (tested: 147 nM); MFI FACS (pre-Myc incubation) (mouse P2X7 [2]): 143 MFI; Fold Cho P2X7/wt (phage ELISA) (mouse P2X7 [3]): 16 fold; absorption ratio (ELISA) (mouse P2X7 [4]): 16 ratio
7 | P2X7PMP19H4 (VHH, family 26; on phage or c-myc/His6-tagged in assays) VHH: EVQLVESGGGLVQAGGSLRLSCVASGRTLSTAVMGWFRQAPGKERGLVAMISWSGSMTYYAKSVKGRFTISRDNAKNTMYLQMNSLKPEDTAVYYCAADMGGGPPDGDAMPRLSSGMDYWGKGTLVTVSS | binds | –
8 | P2X7PMP20H9 (VHH, family 24; on phage or c-myc/His6-tagged in assays) VHH: EVQLVESGGRVMQTGGSLRLSCAASGHTFNDYSMGWFRQAPGKELEFLAGINWSGMSTWYADSVKDRFTISRDNNKNTVFLQMNSLEPGDTAVYYCAARQWISTIILTAPSQYDYWGQGTQVTVSS | binds | –
9 | P2X7PMP16G3 (VHH, family 27; on phage or c-myc/His6-tagged in assays) VHH: EVQLVESGGGLVQAGGSLRLSCAASGNDFARFSIDAMGWYRQAPGKQRELVATVTEDGTKNYADSVKGRATISRDDANNSMYLEMNTLKPEDTAVYYCKMGGLIDGAAPYEFWGRGTQVTVSS | binds | –
10 | P2X7PMP18D12 (VHH, family 6; on phage or c-myc/His6-tagged in assays) VHH: EVQLVESGGDLVQAGGSLKLSCVVSGVTFDDGTIGWFRQAPGKEREGIACISRVDGTTYYRDSVKGRFTVSSDSAKTTVNLQMNSLKPEDTAVYYCAADYASLCTIETGYGSLYDYWGRGTQVTVSS | binds | –
11 | P2X7PMP4B3 (VHH, family 6; on phage or c-myc/His6-tagged in assays) VHH: EVQLVESGGDLVQAGGSLKLSCVVSGVTFDDGTIGWFRQAPGKEREGIACISRVDGTTYYRDSVKGRFTVSSDSAKTTVNLQMNSLKPEDTAVYYCAADYASLCTIETGYGSLYDYWGKGTQVTVSS | binds | –
12 | P2X7PMP5F1 (VHH, family 3; on phage or c-myc/His6-tagged in assays) VHH: EVQLVESGGGLVQAGGSLRLSCAASERTYSMGWFRQAPGKEREFVAGSGWDGIPTRYADSVKGRFTISRDNAKNTVSLQMSGLKPEDTAIYYCATGTSVYHYQYWGQGTQVTVSS | binds | –
13 | P2X7PMP7F3 (VHH, family 3; on phage or c-myc/His6-tagged in assays) VHH: EVQLVESRGGLVQAGGSLRLSCAASERTYSMGWFRQAPGKEREFVAGSGWDGIPTRYADSVKSRFTISRDNAKNTVSLQMSGLKPEDTAIYYCATGTSVYHYQYWGQGTQVTVSS | binds | –
14 | P2X7PMP11D3 (VHH, family 3; on phage or c-myc/His6-tagged in assays) VHH: EVQLVESGGGLVQPGGSLRLSCAASERTYSMGWFRQAPGKEREFVAGSGWDGIPTRYADSVKGRFTISRDNAKNTVSLQMSGLKPEDTAIYYCATGTSVYHYQYWGQGTQVTVSS | binds | –
15 | P2X7PMP11G1 (VHH, family 3; on phage or c-myc/His6-tagged in assays) VHH: EVQLVESGGGLVQAGGSLRLSCAASERTYSMGWFRRAPGKEREFVAGSGWDGIPTRYADSVKGRFTISRDNAKNTVSLQMSGLKPEDTAIYYCATGTSVYHYQYWGQGTQVTVSS | binds | –
16 | P2X7PMP7F1 (VHH, family 3; on phage or c-myc/His6-tagged in assays) VHH: EVQLVESGGGLVQAGGSLRLSCAASERTYSMGWFRQAPGKEREFVAGSGWDGIPTRYADSVKGRFTISRDNAKSTVSLQMSGLKPEDTAIYYCATGTSVYHYQYWGQGTQVTVSS | binds | –
17 | P2X7PMP13B2 (VHH, family 3; on phage or c-myc/His6-tagged in assays) VHH: EVQLVESGGGLVQAGGSLRLSCAASERTYSMGWFRQAPGKEREFVAGSGWDGIPTRYADSVKGRFTISRDNAKNAVSLQMSGLKPEDTAIYYCATGTSVYHYQYWGQGTQVTVSS | binds | –
18 | P2X7PMP11A1 (VHH, family 3; on phage or c-myc/His6-tagged in assays) VHH: EVQLVESGGGLVQAGGSLRLSCAASERTYSVGWFRQAPGKEREFVAGSGWDGTPTRYADSVKGRFTISRDNAKNTVSLQMSGLKPEDTAIYYCATGTSVYHYQYWGQGTQVTVSS | binds | –
19 | P2X7PMP5B1 (VHH, family 3; on phage or c-myc/His6-tagged in assays) VHH: EVQLVESGGGLVQAGGSLRLSCAASERTYSMGWFRQAPGKEREFVAGSGWDGIPTRYADSVKGRFTISRDNAKNTVSLQMSGLKPEDTAIYYCATGTSVYHYQYRGQGTQVTVSS | binds | –
20 | P2X7PMP7F9 (VHH, family 9; on phage or c-myc/His6-tagged in assays) VHH: EVQLVESGGGLVQAGASLRVSCAASARTGSYTMGWFRQAPGKEREFVSTISWNGASTVYADSVKGRFTISRDNAKNTVSLQMNSLKPEDTAVYYCAGSISSYSSRWQDDYEYWGQGTQVTVSS | binds | –
21 | P2X7PMP15C7 (VHH, family 28; on phage or c-myc/His6-tagged in assays) VHH: EMQLVESGGGWVQAGGSLRLSCASSGSIFSAGAMGWYRQPAGKQRELVADITLGGSTNYADSVKGRFTISRDNAKNAVFLQMNSLKPEDTAVYYCNGLINTFARKIPRYAWGQGTQVTVSS | binds | –

Source: US20160264664A1 (Ablynx, published 2016)
